Experimental data published in patent publication US20240324599A1, “PESTICIDAL ENZYMES FOR USE ON NEMATODES, INSECTS, AND MOLLUSKS” (priority 2023, published 2024).

Columns and labels:
Type in all cases: in vivo
[1] = tested on: Fall armyworm (Spodoptera frugiperda); assay: Diet-surface overlay (DSO) bioassay; conditions: number of individuals
Procedure: (§1) Diet-surface overlay bioassays are conducted with artificial diet mixes without antibiotics in 1.5 cm^2 cell bioassay trays(s). Artificial diets are commercially available from Southland Products Inc. Diets were prepared by dispersing 0.5 mL of molten diet to each 1.5 cm^2 cell. After solidification, 0.1 mL enzyme treatments were dispersed on top of diet in each cell and the tray was gently rocked in an orbital shaker to spread the liquid uniformly over the diet surface. Trays were placed under clean airflow until the surface of each cell was uniformly dried. One or two 16-cell sections were used per treatment (the number in larvae treated was 16 or 32).
(§2) One healthy first instar larva was placed into each treatment cell, each 16-cell section was covered with a re-sealable lid and incubated at 27° C. and light-dark period of 16:8 hrs. After 7 days, and according to the species, the number of individuals in the following developmental categories was recorded.
(§3) Negative/untreated controls were treated with filtered water and positive controls were treated with lethal doses of Bacillus thuringiensis subsp. Kurstaki (Btk) spores at 1000 ppm.

[2] = tested on: Btk resistant Diamondback moth; assay: Diet-surface overlay (DSO) bioassay; conditions: Table 47, Btk resistant
Procedure: as §1, §2
Diamondback moth (Plutella xylostella): Dead Larva (lack of movement), Larva Stage I (≤50% relative size), Larva Stage II (100% relative size, full size), Early Pupa (light green color), Late Pupa (light-dark brown color), and Adult.
as §3
However, both neutral proteases reduced the number of individuals reaching adult stage.

[3] = tested on: soybean cyst nematode (SCN, Heterodera glycines); assay: Controlled environment soybean seed treatment trial: SCN cysts on roots; conditions: Table 11
[4] = Table 50, esterases, n=32, dose per treatment in U/mL Diet

B1: H6-pytH (SEQ ID NO: 95) (protein, listed as Sphingobium wenxiniae)
chain: MTVTDIILIHGALNRGACYDAVVPLLEARGYRVHAPDLTGHTPGDGGHLSVVDMEHYTRPVADILARAEGQSILLGHSLGGASISWLAQHHPDKVAGLIYLTAVLTAPGITPETFVLPGEPNRGTPHALDLIQPVDEGRGLQADFSRLERLREVFMGDYPGEGMPPAEQFIQTQSTVPFGTPNPMEGRALEIPRLYIEALDDVVIPIAVQRQMQKEFPGPVAVVSLPASHAPYYSMPERLAEAIADFADAPAEYRQTATKAGPDRPAGADGGRADRADLP
modifications: Esterase (pytH)
- Larva Stage I ([1]; Table 50, esterases, n=32): 0
- Larva Stage II ([1]; Table 50, esterases, n=32): 0
- Larva Stage III ([1]; Table 50, esterases, n=32): 13
- Larva Stage IV ([1]; Table 50, esterases, n=32): 19
- Dead Larva [1, 4]: 0

B2: H6-pnbA (SEQ ID NO: 94) (protein, listed as Bacillus subtilis)
chain: MTHQIVTTQYGKVKGTTENGVHKWKGIPYAKPPVGQWRFKAPEPPEVWEDVLDATAYGSICPQPSDLLSLSYTELPRQSEDCLYVNVFAPDTPSKNLPVMVWIHGGAFYLGAGSEPLYDGSKLAAQGEVIVVTLNYRLGPFGFLHLSSFNEAYSDNLGLLDQAAALKWVRENISAFGGDPDNVTVFGESAGGMSIAALLAMPAAKGLFQKAIMESGASRTMTKEQAASTSAAFLQVLGINEGQLDKLHTVSAEDLLKAADQLRIAEKENIFQLFFQPALDPKTLPEEPEKAIAEGAASGIPLLIGTTRDEGYLFFTPDSDVHSQETLDAALEYLLGKPLAEKVADLYPRSLESQIHMMTDLLFWRPAVAYASAQSHYAPVWMYRFDWHPKKPPYNKAFHALELPFVFGNLDGLERMAKAEITDEVKQLSHTIQSAWITFAKTGNPSTEAVNWPAYHEETRETLILDSEITIENDPESEKRQKLFPSKGE
modifications: Esterase (pnbA)
- Larva Stage I ([1]; Table 50, esterases, n=32): 0
- Larva Stage II ([1]; Table 50, esterases, n=32): 0
- Larva Stage III ([1]; Table 50, esterases, n=32): 15
- Larva Stage IV ([1]; Table 50, esterases, n=32): 17
- Dead Larva [1, 4]: 0

B3: Akanthomyces lecanii Acidic Chitinase 1 (Chit1) (protein, listed as Akanthomyces lecanii)
chain: MAKCTSPDRKCPAPLIDAPINSFMTDGWADTDIHWEGDSWNDSGTNIYGCLKQLNILKKHNRNFKVLLSIGGWTYSSNFPAPASTPEGRDTFAKSCVELVKNLGFDGIDIDWEYPKTAEEAGHFVELLAEVRKQLDEYSARAANNYHFELSVACPAGPDNFQKLNISGMDAYLDFWNLMAYDYAGSWDKNSGHQANLYPCKDAPGCTPFSTVAAVDYYTSNGVSPDKLVLGMPLYGRAFENCDGIGQPFQGVGQGTWEQGVYDYKKLPLEGAEEHKDDDSCATYCHNAESRTLVTYDTPELAKTKADFIKERGLGGGMWWESSADKAGDDSLIQVVVSELGGPEALKQQQNCISYPETKYDNLRDGLPDN
modifications: Acidic Chitinase 1 (Chit1-H195)
- Dead Larva ([2]; individuals of n = 32 after 7 days, mU/mL diet: SEQ 182 3.7, SEQ 185 0.6, water 1): 2
- Early Pupa ([2]; n = 32, doses as E97, water 0): 8
- Larva Stage I ([2]; n = 32, doses as E97, water 0): 2
- Larva Stage II ([2]; n = 32, doses as E97, water 0): 2
- Adult ([2]; n = 32, doses as E97, water 7): 1
- Late Pupa ([2]; n = 32, doses as E97, water 24): 17
- Larva Stage I ([1]; Table 48, chitinases, n = 32): 4
- Larva Stage II ([1]; Table 48, chitinases, n = 32): 5
- Larva Stage III ([1]; Table 48, chitinases, n = 32): 8
- Larva Stage IV ([1]; Table 48, chitinases, n = 32): 8
- Dead Larva ([1]; Table 48, chitinases, n = 32, dose per treatment in mU/mL Diet): 7

B4: Trichoderma lixii trypsin-like protease (protein, listed as Trichoderma lixii)
chain: AAITPRGSDIVGGTTAALGEFPYIVSLSTGGSHFCGGVLIDSRTVVTAGHCTIDQRASSVKVRAGTLTWASGGTQVGVSSLTLHPSYTVDSQGVPDNDVGVWHLATAIPTSSTIGYATLPASGSDPAAGTTLTVAGWGTTSENSNSLPSTLRKVSVPVVARATCDSDYDGEISNNMFCAAVAAGGKDSCSGDSGGPIIDPSGTLVGVVSWGQGCAERGFPGVYTRLGNYVSFINSNRG
modifications: H182 trypsin-like protease
- % Comparison to Control ([3]; base control = 100%): 26%
- Average cysts per g of root tissue ([3]; free enzyme seed treatment 2 fl oz/unit, soybean P18A98X, ILEVO 0.15 mg AI/seed, 3 weeks after inoculation, base control 71.4): 18.6 cysts per g of root tissue
